Results from PMC2743687 (Nature structural & molecular biology, 2009).

Target: full-length Brr2, purified, Protein A tag cleaved off (S. cerevisiae, UniProt P32639 1-2163)
Assay: native gel or EMSA

Sequence of full-length Brr2, purified, Protein A tag cleaved off (P32639 whole entry): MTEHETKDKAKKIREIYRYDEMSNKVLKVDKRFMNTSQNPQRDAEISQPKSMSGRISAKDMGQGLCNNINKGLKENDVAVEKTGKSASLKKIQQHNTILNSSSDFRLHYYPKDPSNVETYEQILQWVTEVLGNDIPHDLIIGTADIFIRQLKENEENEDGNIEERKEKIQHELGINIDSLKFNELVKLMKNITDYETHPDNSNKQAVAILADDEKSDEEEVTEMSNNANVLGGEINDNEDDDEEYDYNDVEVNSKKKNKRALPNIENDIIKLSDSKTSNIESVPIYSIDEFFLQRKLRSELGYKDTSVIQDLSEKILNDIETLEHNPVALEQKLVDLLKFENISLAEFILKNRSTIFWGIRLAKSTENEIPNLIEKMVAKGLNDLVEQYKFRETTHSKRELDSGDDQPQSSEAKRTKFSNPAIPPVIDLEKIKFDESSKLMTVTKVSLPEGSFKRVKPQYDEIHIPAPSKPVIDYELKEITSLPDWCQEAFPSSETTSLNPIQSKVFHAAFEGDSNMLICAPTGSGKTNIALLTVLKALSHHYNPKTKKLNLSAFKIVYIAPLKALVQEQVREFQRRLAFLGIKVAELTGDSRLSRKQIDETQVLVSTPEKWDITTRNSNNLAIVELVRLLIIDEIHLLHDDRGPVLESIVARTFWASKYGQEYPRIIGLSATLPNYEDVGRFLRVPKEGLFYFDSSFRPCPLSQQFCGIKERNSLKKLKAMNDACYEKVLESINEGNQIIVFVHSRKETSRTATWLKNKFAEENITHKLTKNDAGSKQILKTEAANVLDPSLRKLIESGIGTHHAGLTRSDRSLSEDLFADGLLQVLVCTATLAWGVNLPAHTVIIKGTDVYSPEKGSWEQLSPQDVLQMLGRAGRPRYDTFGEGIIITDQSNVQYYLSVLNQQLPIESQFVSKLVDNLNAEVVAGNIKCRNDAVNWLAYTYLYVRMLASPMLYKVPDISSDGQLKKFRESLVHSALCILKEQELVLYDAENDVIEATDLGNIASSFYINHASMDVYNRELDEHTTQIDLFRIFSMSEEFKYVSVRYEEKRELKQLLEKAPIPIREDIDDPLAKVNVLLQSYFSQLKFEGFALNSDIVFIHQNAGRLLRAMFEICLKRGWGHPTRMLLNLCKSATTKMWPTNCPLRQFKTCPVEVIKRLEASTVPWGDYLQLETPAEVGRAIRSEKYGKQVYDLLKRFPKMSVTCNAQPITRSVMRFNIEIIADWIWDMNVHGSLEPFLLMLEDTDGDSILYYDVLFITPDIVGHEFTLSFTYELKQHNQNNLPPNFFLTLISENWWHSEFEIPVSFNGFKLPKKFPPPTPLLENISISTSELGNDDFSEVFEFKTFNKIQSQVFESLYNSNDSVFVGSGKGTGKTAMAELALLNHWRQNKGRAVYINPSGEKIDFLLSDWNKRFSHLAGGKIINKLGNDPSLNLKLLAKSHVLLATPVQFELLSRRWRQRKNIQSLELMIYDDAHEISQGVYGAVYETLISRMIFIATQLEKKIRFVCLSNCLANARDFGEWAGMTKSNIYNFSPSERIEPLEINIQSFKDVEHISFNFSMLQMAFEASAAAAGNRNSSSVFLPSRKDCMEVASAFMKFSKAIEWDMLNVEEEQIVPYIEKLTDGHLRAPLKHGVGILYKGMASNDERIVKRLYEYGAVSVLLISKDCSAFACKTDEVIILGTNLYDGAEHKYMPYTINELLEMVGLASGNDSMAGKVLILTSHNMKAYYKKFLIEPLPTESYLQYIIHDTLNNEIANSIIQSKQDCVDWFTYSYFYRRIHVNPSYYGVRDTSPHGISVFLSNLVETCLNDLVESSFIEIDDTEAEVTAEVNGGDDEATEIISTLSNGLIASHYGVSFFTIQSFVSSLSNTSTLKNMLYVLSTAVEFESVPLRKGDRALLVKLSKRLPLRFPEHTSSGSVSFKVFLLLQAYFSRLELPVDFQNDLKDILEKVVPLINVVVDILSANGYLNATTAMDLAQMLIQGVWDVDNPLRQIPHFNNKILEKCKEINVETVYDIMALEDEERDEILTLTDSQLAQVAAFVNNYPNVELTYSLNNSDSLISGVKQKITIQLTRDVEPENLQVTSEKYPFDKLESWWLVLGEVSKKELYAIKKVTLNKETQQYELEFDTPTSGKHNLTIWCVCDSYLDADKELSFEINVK

B1: C-terminal region of Prp8 (Prp8-CTR, residues 1822–2395) (domain or fragment)
chain: GLQIYQSSVQEPFLNSSNYAELFNNDIKLFVDDTNVYRVTVHKTFEGNVATKAINGCIFTLNPKTGHLFLKIIHTSVWAGQKRLSQLAKWKTAEEVSALVRSLPKEEQPKQIIVTRKAMLDPLEVHMLDFPNIAIRPTELRLPFSAAMSIDKLSDVVMKATEPQMVLFNIYDDWLDRISSYTAFSRLTLLLRALKTNEESAKMILLSDPTITIKSYHLWPSFTDEQWITIESQMRDLILTEYGRKYNVNISALTQTEIKDIILGQNIKAPSVKRQKMAELEAARSEKQNDEEAAGASTVMKTKTINAQGEEIVVVASADYESQTFSSKNEWRKSAIANTLLYLRLKNIYVSADDFVEEQNVYVLPKNLLKKFIEISDVKIQVAAFIYGMSAKDHPKVKEIKTVVLVPQLGHVGSVQISNIPDIGDLPDTEGLELLGWIHTQTEELKFMAASEVATHSKLFADKKRDCIDISIFSTPGSVSLSAYNLTDEGYQWGEENKDIMNVLSEGFEPTFSTHAQLLLSDRITGNFIIPSGNVWNYTFMGTAFNQEGDYNFKYGIPLEFYNEMHRPVHFLQF
**Q.** Does B1 bind?
**A.** Result: binds
